Laboratory results: US20230357438A1 (BIOSION, published 2023)
Where two headings read alike, the source gives them in different places.

B1: A2E12G12H7 (antibody, V domains shown)
VH: QVQLVQSGAEVKKPGASVKVSCKASGYTFTGYYIHWVRQAPGQGLEWMGWINPNSGSTNSAQKFQDWVTLTRDTSISTAYMELSRLKSDDTAVYYCARRADYYGSGNFYYFDYWGQGTLVTVSS
VL: DIQMTQSPSSVSASVGDRVTISCRASQSISRWLAWYQQKPGKAPKLLIYAATSLQSGVPSRFSGSGFVRDFTLTISSLQPEDFATYYCQQANTFPLIFGGGTKVEIK
notes: Fully human antibody purified from hybridoma; not added here
B2: A5G9C2C7 (antibody, V domains shown)
VH: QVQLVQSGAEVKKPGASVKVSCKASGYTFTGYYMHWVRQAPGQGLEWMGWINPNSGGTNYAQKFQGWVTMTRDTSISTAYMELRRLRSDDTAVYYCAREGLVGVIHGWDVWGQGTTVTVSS
VL: DIQMTQSPSTLSASVGDRVTITCRASQNIYNWLAWYQQKPGKAPKLLIYKASSLESGVPSRFSGSGSGTEFTLTISSLQPDDFATYYCQQYNSNSRTFGQGTKVEIK
notes: as for B1

Tests used:
[1] = molecular target: T1, mutant human C5 (R885H)-his protein (Acro biosystems, Cat#CO5-H52Hx) (human, UniProt P01031 19-1676); assay: SPR (Biacore T200), antibody captured by anti-human IgG, C5 in flow, 1:1 fit
T1 construct: Bought protein; also called human C5 mutant; not shown: his tag

[2] = molecular target: T2, cynomolgus monkey C5-his protein (Acro biosystems, Cat#CO5-C52Hx) (cynomolgus monkey, UniProt A0A2K5U1T1 19-1676); assay: indirect ELISA on coated cynomolgus C5-his (1 ug/ml), anti-human IgG Fc-HRP
T2 construct: Bought protein; also called Cynomolgus C5-his; cynomolgus C5; not shown: his tag

[3] = molecular target: T1, mutant human C5 (R885H)-his protein …; assay: indirect ELISA on coated human C5 (R885H)-his (2 ug/ml), anti-human IgG Fc-HRP
[4] = molecular target: T3, recombinant human C5-his protein (Sino Biological Inc., Cat#13416-H18H) (human, UniProt P01031 19-1676); assay: capture ELISA: antibody captured on goat anti-human IgG Fc, biotin-labeled human C5-his 0.99 nM, streptavidin-HRP
T3 construct: Bought protein; also called wild type human C5; not shown: his tag

[5] = molecular target: T3, recombinant human C5-his protein (Sino …); assay: competitive ELISA: antibody pre-mixed with biotin-labeled human C5-his 0.99 nM, added to coated Eculizumab; partial inhibition only, value below the range tested
[6] = molecular target: T2, cynomolgus monkey C5-his protein (Acro …); assay: SPR (Biacore T200), antibody captured by anti-human IgG, C5 in flow, 1:1 fit
[7] = molecular target: T3, recombinant human C5-his protein (Sino …); assay: as above
[8] = molecular target: T3, recombinant human C5-his protein (Sino …); assay: competitive ELISA: antibody pre-mixed with biotin-labeled human C5-his 0.99 nM, added to coated Eculizumab; partial inhibition only
[9] = molecular target: T3, recombinant human C5-his protein (Sino …); assay: capture ELISA: antibody captured on goat anti-human IgG Fc, biotin-labeled human C5-his 0.99 nM, streptavidin-HRP; remark: listed apart in the source
[10] = molecular target: T2, cynomolgus monkey C5-his protein (Acro …); assay: indirect ELISA on coated cynomolgus C5-his (1 ug/ml), anti-human IgG Fc-HRP; remark: listed apart in the source
[11] = molecular target: T1, mutant human C5 (R885H)-his protein …; assay: indirect ELISA on coated human C5 (R885H)-his (2 ug/ml), anti-human IgG Fc-HRP; remark: listed apart in the source

Binder	Kd [1]	koff [1]	kon [1]	EC50 [2]	EC50 [3]	EC50 [4]	IC50 [5]	Kd [6]	koff [6]	kon [6]	Kd [7]	koff [7]	kon [7]	IC50 [8]	EC50 [9]	EC50 [10]	EC50 [11]
B1	1.32 nM	0.000408 s⁻¹	308000 M⁻¹ s⁻¹	0.127 nM	0.0684 nM	0.0418 nM	~0.00153 nM	0.741 nM	0.000267 s⁻¹	360000 M⁻¹ s⁻¹	1.6 nM	0.000186 s⁻¹	117000 M⁻¹ s⁻¹	–	–	–	–
B2	0.303 nM	0.000153 s⁻¹	505000 M⁻¹ s⁻¹	–	–	–	–	1.58 nM	0.000293 s⁻¹	185000 M⁻¹ s⁻¹	0.262 nM	3.47e-05 s⁻¹	133000 M⁻¹ s⁻¹	~0.256 nM	0.0277 nM	0.128 nM	0.0853 nM
